Measurements from patent publication US5328898A, “Factor XIIIA fibrin binding fragments” (Duke University, priority 1990, dated 1994).
Ends that are not written are not given here.

Legend:
fibrin [1] = molecular target: T1, fibrin (Homo sapiens, UniProt P02671+P02675+P02679); experiment: Inhibition of 125I-DDAVY. . . peptide binding to fibrin (competition)
T1 construct: the mixture was clotted by the addition of 10 U/mL of thrombin; After 10 minutes at 37° C., the fibrin was compressed
T1 sequence (P02671 36-629 isoform P02671-2 limits assumed): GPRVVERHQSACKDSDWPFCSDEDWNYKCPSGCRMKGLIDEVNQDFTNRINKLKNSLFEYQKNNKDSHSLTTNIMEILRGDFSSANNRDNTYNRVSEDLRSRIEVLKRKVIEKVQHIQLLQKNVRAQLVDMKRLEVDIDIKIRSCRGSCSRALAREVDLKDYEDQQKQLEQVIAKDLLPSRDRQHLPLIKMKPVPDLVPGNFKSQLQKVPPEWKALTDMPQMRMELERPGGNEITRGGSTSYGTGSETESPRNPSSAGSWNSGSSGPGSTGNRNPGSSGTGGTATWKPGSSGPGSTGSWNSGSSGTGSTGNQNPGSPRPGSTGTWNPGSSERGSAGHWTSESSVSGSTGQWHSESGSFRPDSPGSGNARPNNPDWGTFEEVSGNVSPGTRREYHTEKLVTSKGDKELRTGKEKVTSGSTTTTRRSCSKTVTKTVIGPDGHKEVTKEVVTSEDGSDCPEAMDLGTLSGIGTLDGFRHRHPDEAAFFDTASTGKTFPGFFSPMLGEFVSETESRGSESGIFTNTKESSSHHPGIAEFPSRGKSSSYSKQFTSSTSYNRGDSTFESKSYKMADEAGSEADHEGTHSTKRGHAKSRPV
T1 sequence (P02675 45-491 limits assumed): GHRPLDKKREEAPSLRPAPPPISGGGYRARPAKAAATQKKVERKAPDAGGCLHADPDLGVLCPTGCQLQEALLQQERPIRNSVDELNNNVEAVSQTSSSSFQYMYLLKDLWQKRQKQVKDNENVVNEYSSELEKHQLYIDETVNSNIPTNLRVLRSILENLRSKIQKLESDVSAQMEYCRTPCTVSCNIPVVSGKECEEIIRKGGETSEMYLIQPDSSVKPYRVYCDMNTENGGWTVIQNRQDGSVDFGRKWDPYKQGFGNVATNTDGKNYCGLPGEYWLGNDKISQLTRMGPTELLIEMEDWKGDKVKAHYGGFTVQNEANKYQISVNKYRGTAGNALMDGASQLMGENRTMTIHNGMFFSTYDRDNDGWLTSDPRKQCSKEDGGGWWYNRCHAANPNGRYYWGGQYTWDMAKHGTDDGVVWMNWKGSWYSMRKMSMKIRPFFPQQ
T1 sequence (P02679 27-437 isoform P02679-2 limits assumed): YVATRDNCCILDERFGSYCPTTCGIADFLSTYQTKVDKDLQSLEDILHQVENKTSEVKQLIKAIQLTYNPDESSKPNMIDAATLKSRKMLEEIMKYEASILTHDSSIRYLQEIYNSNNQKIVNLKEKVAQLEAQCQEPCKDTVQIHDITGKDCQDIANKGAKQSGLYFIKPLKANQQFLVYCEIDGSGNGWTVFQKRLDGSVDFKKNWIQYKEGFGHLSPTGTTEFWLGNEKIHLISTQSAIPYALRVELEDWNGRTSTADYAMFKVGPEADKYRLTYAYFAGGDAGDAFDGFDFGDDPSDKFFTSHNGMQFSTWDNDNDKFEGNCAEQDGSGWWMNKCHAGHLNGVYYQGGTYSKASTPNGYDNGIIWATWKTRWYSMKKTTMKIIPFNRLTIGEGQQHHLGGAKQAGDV
Experimental: (§1) Binding of radiolabeled DDAVY. . . peptide prepared in accordance with Example 3 above was conducted in the presence of the following proteins: human albumin (Kabi), bovine serum albumin (BSA), hemoglobin, and cytochrome C. Fibrin binding was performed by incubating 0.5 mg/mL fibrinogen, 0.1% Triton X-100, 0.15M NaCl, 0.1M Tris, pH 7.4 (TBS), 10 mM CaCl2, and ^125 I-labeled DDAVY. . . peptide and the mixture was clotted by the addition of 10 U/mL of thrombin. After 10 minutes at 37° C., the fibrin was compressed by centrifugation (10-12,000 rpm for 10 minutes), washed thrice with TBS and the bound radioactivity was quantitated using a gamma Counter. Proteins were included in the binding mixture at these concentrations: hemoglobin (100 micromolar); human albumin (Kabi) (100 micromolar); and cytochrome C (500 micromolar). Fibrin concentration was approximately 1.0 micromolar.
Purified recombinant platelet Factor XIII A-chains were used to inhibit the binding of DDAVY. . . peptide to fibrin. At a concentration of 0.4 mg/mL fibrinogen, 2.0 mg/mL of recombinant platelet Factor XIII inhibited the binding of DDAVY. . . peptide to fibrin by 76%. In another experiment, purified placental Factor XIII A-chains were used to inhibit DDAVY. . . peptide binding to fibrin. Binding was conducted in the presence of 1.0 mg/mL fibrinogen, 5 nanomoles of placental Factor XIII and approximately 0.05 nanomoles of the DDAVY. . . peptide. Under these conditions, the binding of the peptide to fibrin was inhibited by nearly 44%.
Binding of radiolabeled DDAVY. . . peptide (approximately 52 pmoles) was mixed with unlabeled DDAVY. . . peptide (approximately 34 nanomoles;=660-fold molar excess over radiolabeled peptide) and the mixture was bound to 0.1 mg/mL fibrin. Under these conditions, the binding of radiolabeled peptide was inhibited by nearly 83%. […] In these experiments and in the experiments conducted in the presence of XIII, binding values were corrected for nonspecific binding observed in the absence of thrombin and/or in the presence of XIII or unlabeled DDAVY. . . peptide alone.

Factor XIIIa = experiment: Factor XIIIa-catalyzed crosslinking of fibrin II (SDS-PAGE); type: biochemical; settings: human fibrinogen 0.27 mg/mL
Experimental: This example illustrates the effect of DDAVY. . . peptide and NKLIV. . . peptide on fibrin crosslinking by Factor XIIIa. Purified human fibrinogen (0.27 mg/mL) was mixed with increasing concentrations (56 micromolar to 280 micromolar) of the DDAVY. . . peptide and incubated for 15 minutes at 37° C. Then, calcium chloride was added in 0.1M Tris, pH7.4 containing 0.15M NaCl (Tris-buffered saline, TBS) to make the final calcium concentration equal 10 mM. The mixture was then clotted by the addition of 10 U/mL thrombin. Thrombin also served to activate the catalytic amounts of Factor XIII present in the fibrinogen preparation. The mixture was incubated for an additional 15 minutes at 37° C. and then solubilized in SDS-PAGE buffer containing 5% sodium dodecylsulfate (SDS), 4M urea, 10mM Tris, pH7.4, 1.0 mM ethylenediaminetetraacetic acid (EDTA), 1% 2-mercaptoethanol, and 0.001% bromophenol blue. The mixture was boiled for 5 minutes, cooled, and then separated by electrophoresis on a 4-15% linear gradient polyacrylamide gel (SDS-polyacrylamide gel electrophoresis, SDS-PAGE). After electrophoresis, the gel was stained using Coomassie Brilliant Blue and destained. Control incubations were conducted simultaneously that contained no peptide.
The reaction was also conducted as described for the DDAVY. . . peptide, except that NKLIV. . . peptide was substituted for the DDAVY. . . peptide. […]

fibrin [2] = molecular target: T1, fibrin; experiment: Fibrin binding of radiolabeled peptides; settings: unbound material analyzed by reverse phase HPLC
Experimental: By reverse phase HPLC, peptides containing portions of the N- and C-terminal amino acid sequences of the DDAVY. . . peptide were separated from the full length DDAVY. . . peptide.
as §1

Substance: DDAVYLDNEKEREEYVLNDIGVIFYGEVNDIKTRSWSYGQF-amide (DDAVYLDNEKEREEYVLNDIGVIFYGEVNDIKTRSWSYGQF-NH2) [DDAVY. . . peptide]
- inhibition of binding of radiolabeled DDAVY. . . peptide to fibrin (fibrin [1]; 1.0 mg/mL unlabeled peptide, 2.0 micrograms/mL radiolabeled peptide, 0.2 mg/mL fibrin): inhibited completely
- inhibition of binding of radiolabeled DDAVY. . . peptide to fibrin (fibrin [1]; approximately 34 nanomoles unlabeled peptide (660-fold molar excess over approximately 52 pmoles radiolabeled), 0.1 mg/mL fibrin): ~83%
- inhibition of fibrin crosslinking (Factor XIIIa; 280 micromolar peptide): ~50%
- concentration at which inhibition of fibrin crosslinking could be detected (Factor XIIIa; 10 U/mL thrombin, 10 mM calcium): around 112 micromolar
- binding to fibrin (fibrin [2]): bound to fibrin

Substance: GEVNDIKTRSWSYGQF [C-terminal portion of the DDAVY. . . peptide separated by HPLC]
- binding to fibrin (fibrin [2]): did not bind to fibrin

Substance: KTRSWSYGQF [C-terminal portion of the DDAVY. . . peptide separated by HPLC]
- binding to fibrin (fibrin [2]): did not bind to fibrin

Substance: placental Factor XIII A-chains: purified placental Factor XIII A-chains
- inhibition of the binding of DDAVY. . . peptide to fibrin (fibrin [1]; 1.0 mg/mL fibrinogen, 5 nanomoles placental Factor XIII, approximately 0.05 nanomoles DDAVY. . . peptide): ~44%

Substance: recombinant platelet Factor XIII: Purified recombinant platelet Factor XIII A-chains
- inhibition of the binding of DDAVY. . . peptide to fibrin (fibrin [1]; 0.4 mg/mL fibrinogen, 2.0 mg/mL recombinant platelet Factor XIII): 76%
